T1: human FcγRIIa(H) (human, UniProt P12318 36-217)
T1 construct: also called FcgRIIaH; hFcgRIIa(H)
T1 sequence: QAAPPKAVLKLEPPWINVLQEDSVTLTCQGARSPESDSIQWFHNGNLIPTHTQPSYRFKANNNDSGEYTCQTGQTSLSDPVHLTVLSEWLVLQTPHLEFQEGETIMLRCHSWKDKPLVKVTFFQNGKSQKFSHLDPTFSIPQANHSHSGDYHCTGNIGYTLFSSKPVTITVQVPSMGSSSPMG

T2: human FcγRIIa(R) (human, UniProt P12318 36-217)
T2 construct: also called FcgRIIaR; hFcgRIIa(R)
T2 chain: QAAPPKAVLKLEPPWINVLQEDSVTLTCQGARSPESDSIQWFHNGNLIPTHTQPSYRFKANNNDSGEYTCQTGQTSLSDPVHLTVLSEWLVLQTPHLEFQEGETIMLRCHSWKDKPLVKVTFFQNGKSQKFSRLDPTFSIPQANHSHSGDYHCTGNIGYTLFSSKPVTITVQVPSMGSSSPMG

T3: human FcγRIIb (human, UniProt P31994 43-217, limits assumed)
T3 construct: also called FcgRIIb; hFcgRIIb
T3 sequence: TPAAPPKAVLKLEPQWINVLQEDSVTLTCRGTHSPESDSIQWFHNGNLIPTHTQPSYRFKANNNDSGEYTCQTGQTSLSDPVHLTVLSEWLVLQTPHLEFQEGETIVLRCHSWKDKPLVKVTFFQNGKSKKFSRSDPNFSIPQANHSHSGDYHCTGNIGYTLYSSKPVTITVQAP


Tests used:
Assay in all cases: SPR, captured antibody;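 further: antibody captured on a sensor chip, Fcγ receptor flowed over at 25 °C, receptor binding normalized to the captured antibody amount and expressed relative to the reference antibody ×100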
human FcγRIIa(H) = target: T1, human FcγRIIa(H)
Description: (§1) Interaction between each modified antibody and Fcγ receptor prepared in the manner described above was analyzed using the BIACORE™ T100 surface plasmon resonance system (GE Healthcare), BIACORE™ T200 surface plasmon resonance system (GE Healthcare), BIACORE™ A100 surface plasmon resonance system or BIACORE™ 4000 surface plasmon resonance system. HBS-EP+ (GE Healthcare) was used for the running buffer, and measurements were carried out at 25° C. The chips used were chips in which antigen peptides, Protein A (Thermo Scientific), Protein A/G (Thermo Scientific) or Protein L (ACTIGEN® protein (Alltech or BioVision) were immobilized on the Series S Sensor Chip CMS (GE Healthcare) or Series S Sensor Chip CM4 (GE Healthcare) by amine coupling, or chips in which preliminarily biotinylated antigen peptides were allowed to interact and then immobilized on the Series S Sensor Chip SA (certified) (GE Healthcare). The target antibodies were captured on these sensor chips, Fcγ receptor diluted with the running buffer was allowed to interact, followed by measurement of the amount of bound antibody. The amounts bound were compared between antibodies. However, since the amount of Fcγ receptor bound depends on the amount of captured antibody, the values used for comparison were first corrected by dividing the amount of Fcγ receptor bound by the captured amount of each antibody. Through reaction with 10 mM glycine-HCl at pH 1.5, the sensor chips were regenerated by washing off antibody captured on the sensor chips and used repeatedly.
(§2) Binding strength was evaluated according to the following method based on the results of analyzing the interaction with each FcγR. […] That value was then further multiplied by 100, and the resulting value was used as an indicator of relative binding activity to each FcγR.

human FcγRIa = target: T4, human FcγRIa (human, UniProt P12314 16-292, limits assumed)
T4 construct: also called FcgRIa; hFcgRIa
T4 sequence (P12314 16-292 limits assumed): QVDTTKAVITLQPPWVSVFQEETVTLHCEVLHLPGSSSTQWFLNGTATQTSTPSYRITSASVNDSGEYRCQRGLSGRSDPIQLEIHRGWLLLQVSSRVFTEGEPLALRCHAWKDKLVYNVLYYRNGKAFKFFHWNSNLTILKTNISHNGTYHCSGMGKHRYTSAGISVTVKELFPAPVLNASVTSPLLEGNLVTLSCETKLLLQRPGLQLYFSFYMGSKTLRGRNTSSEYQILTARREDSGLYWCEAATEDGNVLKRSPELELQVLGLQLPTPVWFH
Description: as §1, §2

human FcγRIIa(R) = target: T2, human FcγRIIa(R)
Description: as §1, §2

human FcγRIIb = target: T3, human FcγRIIb
Description: as §1, §2

relative binding activity (human FcγRIIa(H))	relative binding activity (human FcγRIa)	relative binding activity (human FcγRIIa(R))	relative binding activity (human FcγRIIb)	Binder
48 % of GpH7-B3/GpL16-k0	98 % of GpH7-B3/GpL16-k0	38 % of GpH7-B3/GpL16-k0	28 % of GpH7-B3/GpL16-k0	GpH7-B3 P271Y/GpL16-k0 (antibody, human IgG1, B3 variant; copies: 2 + 2) heavy: not shown light: DIVMTQSPLSLPVTPGEPASISCQASESLVHSNRNTYLHWYLQKPGQSPQLLIYKVSNRFSGVPDRFSGSGSGTDFTLKISRVEAEDVGVYYCSQNTHVPPTFGQGTKVEIE
0 % of GpH7-B3/GpL16-k0	94 % of GpH7-B3/GpL16-k0	1 % of GpH7-B3/GpL16-k0	0 % of GpH7-B3/GpL16-k0	GpH7-B3 P329W/GpL16-k0 (antibody, human IgG1, B3 variant; copies: 2 + 2) heavy: not shown light: DIVMTQSPLSLPVTPGEPASISCQASESLVHSNRNTYLHWYLQKPGQSPQLLIYKVSNRFSGVPDRFSGSGSGTDFTLKISRVEAEDVGVYYCSQNTHVPPTFGQGTKVEIE
37 % of GpH7-B3/GpL16-k0	95 % of GpH7-B3/GpL16-k0	43 % of GpH7-B3/GpL16-k0	40 % of GpH7-B3/GpL16-k0	GpH7-B3 Q295D/GpL16-k0 (antibody, human IgG1, B3 variant; copies: 2 + 2) heavy: not shown light: DIVMTQSPLSLPVTPGEPASISCQASESLVHSNRNTYLHWYLQKPGQSPQLLIYKVSNRFSGVPDRFSGSGSGTDFTLKISRVEAEDVGVYYCSQNTHVPPTFGQGTKVEIE
1 % of GpH7-B3/GpL16-k0	60 % of GpH7-B3/GpL16-k0	0 % of GpH7-B3/GpL16-k0	-1 % of GpH7-B3/GpL16-k0	GpH7-B3 P329S/GpL16-k0 (antibody, human IgG1, B3 variant; copies: 2 + 2) heavy: not shown light: DIVMTQSPLSLPVTPGEPASISCQASESLVHSNRNTYLHWYLQKPGQSPQLLIYKVSNRFSGVPDRFSGSGSGTDFTLKISRVEAEDVGVYYCSQNTHVPPTFGQGTKVEIE
58 % of GpH7-B3/GpL16-k0	98 % of GpH7-B3/GpL16-k0	72 % of GpH7-B3/GpL16-k0	63 % of GpH7-B3/GpL16-k0	GpH7-B3 P331K/GpL16-k0 (antibody, human IgG1, B3 variant; copies: 2 + 2) heavy: not shown light: DIVMTQSPLSLPVTPGEPASISCQASESLVHSNRNTYLHWYLQKPGQSPQLLIYKVSNRFSGVPDRFSGSGSGTDFTLKISRVEAEDVGVYYCSQNTHVPPTFGQGTKVEIE
-1 % of GpH7-B3/GpL16-k0	9 % of GpH7-B3/GpL16-k0	-2 % of GpH7-B3/GpL16-k0	-3 % of GpH7-B3/GpL16-k0	GpH7-B3 P329R/GpL16-k0 (antibody, human IgG1, B3 variant; copies: 2 + 2) heavy: not shown light: DIVMTQSPLSLPVTPGEPASISCQASESLVHSNRNTYLHWYLQKPGQSPQLLIYKVSNRFSGVPDRFSGSGSGTDFTLKISRVEAEDVGVYYCSQNTHVPPTFGQGTKVEIE
9 % of GpH7-B3/GpL16-k0	88 % of GpH7-B3/GpL16-k0	13 % of GpH7-B3/GpL16-k0	8 % of GpH7-B3/GpL16-k0	GpH7-B3 P331G/GpL16-k0 (antibody, human IgG1, B3 variant; copies: 2 + 2) heavy: not shown light: DIVMTQSPLSLPVTPGEPASISCQASESLVHSNRNTYLHWYLQKPGQSPQLLIYKVSNRFSGVPDRFSGSGSGTDFTLKISRVEAEDVGVYYCSQNTHVPPTFGQGTKVEIE
2 % of GpH7-B3/GpL16-k0	68 % of GpH7-B3/GpL16-k0	2 % of GpH7-B3/GpL16-k0	1 % of GpH7-B3/GpL16-k0	GpH7-B3 P329L/GpL16-k0 (antibody, human IgG1, B3 variant; copies: 2 + 2) heavy: not shown light: DIVMTQSPLSLPVTPGEPASISCQASESLVHSNRNTYLHWYLQKPGQSPQLLIYKVSNRFSGVPDRFSGSGSGTDFTLKISRVEAEDVGVYYCSQNTHVPPTFGQGTKVEIE
74 % of GpH7-B3/GpL16-k0	99 % of GpH7-B3/GpL16-k0	46 % of GpH7-B3/GpL16-k0	30 % of GpH7-B3/GpL16-k0	GpH7-B3 Q295F/GpL16-k0 (antibody, human IgG1, B3 variant; copies: 2 + 2) heavy: not shown light: DIVMTQSPLSLPVTPGEPASISCQASESLVHSNRNTYLHWYLQKPGQSPQLLIYKVSNRFSGVPDRFSGSGSGTDFTLKISRVEAEDVGVYYCSQNTHVPPTFGQGTKVEIE
41 % of GpH7-B3/GpL16-k0	89 % of GpH7-B3/GpL16-k0	36 % of GpH7-B3/GpL16-k0	28 % of GpH7-B3/GpL16-k0	GpH7-B3 Q295G/GpL16-k0 (antibody, human IgG1, B3 variant; copies: 2 + 2) heavy: not shown light: DIVMTQSPLSLPVTPGEPASISCQASESLVHSNRNTYLHWYLQKPGQSPQLLIYKVSNRFSGVPDRFSGSGSGTDFTLKISRVEAEDVGVYYCSQNTHVPPTFGQGTKVEIE
2 % of GpH7-B3/GpL16-k0	69 % of GpH7-B3/GpL16-k0	2 % of GpH7-B3/GpL16-k0	0 % of GpH7-B3/GpL16-k0	GpH7-B3 P329M/GpL16-k0 (antibody, human IgG1, B3 variant; copies: 2 + 2) heavy: not shown light: DIVMTQSPLSLPVTPGEPASISCQASESLVHSNRNTYLHWYLQKPGQSPQLLIYKVSNRFSGVPDRFSGSGSGTDFTLKISRVEAEDVGVYYCSQNTHVPPTFGQGTKVEIE
0 % of GpH7-B3/GpL16-k0	50 % of GpH7-B3/GpL16-k0	-1 % of GpH7-B3/GpL16-k0	-3 % of GpH7-B3/GpL16-k0	GpH7-B3 P329H/GpL16-k0 (antibody, human IgG1, B3 variant; copies: 2 + 2) heavy: not shown light: DIVMTQSPLSLPVTPGEPASISCQASESLVHSNRNTYLHWYLQKPGQSPQLLIYKVSNRFSGVPDRFSGSGSGTDFTLKISRVEAEDVGVYYCSQNTHVPPTFGQGTKVEIE
0 % of GpH7-B3/GpL16-k0	43 % of GpH7-B3/GpL16-k0	-2 % of GpH7-B3/GpL16-k0	-4 % of GpH7-B3/GpL16-k0	GpH7-B3 P329T/GpL16-k0 (antibody, human IgG1, B3 variant; copies: 2 + 2) heavy: not shown light: DIVMTQSPLSLPVTPGEPASISCQASESLVHSNRNTYLHWYLQKPGQSPQLLIYKVSNRFSGVPDRFSGSGSGTDFTLKISRVEAEDVGVYYCSQNTHVPPTFGQGTKVEIE
5 % of GpH7-B3/GpL16-k0	45 % of GpH7-B3/GpL16-k0	4 % of GpH7-B3/GpL16-k0	0 % of GpH7-B3/GpL16-k0	GpH7-B3 P329N/GpL16-k0 (antibody, human IgG1, B3 variant; copies: 2 + 2) heavy: not shown light: DIVMTQSPLSLPVTPGEPASISCQASESLVHSNRNTYLHWYLQKPGQSPQLLIYKVSNRFSGVPDRFSGSGSGTDFTLKISRVEAEDVGVYYCSQNTHVPPTFGQGTKVEIE
1 % of GpH7-B3/GpL16-k0	92 % of GpH7-B3/GpL16-k0	1 % of GpH7-B3/GpL16-k0	0 % of GpH7-B3/GpL16-k0	GpH7-B3 P329G/GpL16-k0 (antibody, human IgG1, B3 variant; copies: 2 + 2) heavy: not shown light: DIVMTQSPLSLPVTPGEPASISCQASESLVHSNRNTYLHWYLQKPGQSPQLLIYKVSNRFSGVPDRFSGSGSGTDFTLKISRVEAEDVGVYYCSQNTHVPPTFGQGTKVEIE
0 % of GpH7-B3/GpL16-k0	33 % of GpH7-B3/GpL16-k0	-1 % of GpH7-B3/GpL16-k0	-2 % of GpH7-B3/GpL16-k0	GpH7-B3 P329E/GpL16-k0 (antibody, human IgG1, B3 variant; copies: 2 + 2) heavy: not shown light: DIVMTQSPLSLPVTPGEPASISCQASESLVHSNRNTYLHWYLQKPGQSPQLLIYKVSNRFSGVPDRFSGSGSGTDFTLKISRVEAEDVGVYYCSQNTHVPPTFGQGTKVEIE
59 % of GpH7-B3/GpL16-k0	95 % of GpH7-B3/GpL16-k0	64 % of GpH7-B3/GpL16-k0	55 % of GpH7-B3/GpL16-k0	GpH7-B3 P331R/GpL16-k0 (antibody, human IgG1, B3 variant; copies: 2 + 2) heavy: not shown light: DIVMTQSPLSLPVTPGEPASISCQASESLVHSNRNTYLHWYLQKPGQSPQLLIYKVSNRFSGVPDRFSGSGSGTDFTLKISRVEAEDVGVYYCSQNTHVPPTFGQGTKVEIE
0 % of GpH7-B3/GpL16-k0	43 % of GpH7-B3/GpL16-k0	-1 % of GpH7-B3/GpL16-k0	-2 % of GpH7-B3/GpL16-k0	GpH7-B3 P329Q/GpL16-k0 (antibody, human IgG1, B3 variant; copies: 2 + 2) heavy: not shown light: DIVMTQSPLSLPVTPGEPASISCQASESLVHSNRNTYLHWYLQKPGQSPQLLIYKVSNRFSGVPDRFSGSGSGTDFTLKISRVEAEDVGVYYCSQNTHVPPTFGQGTKVEIE
1 % of GpH7-B3/GpL16-k0	79 % of GpH7-B3/GpL16-k0	1 % of GpH7-B3/GpL16-k0	0 % of GpH7-B3/GpL16-k0	GpH7-B3 P329F/GpL16-k0 (antibody, human IgG1, B3 variant; copies: 2 + 2) heavy: not shown light: DIVMTQSPLSLPVTPGEPASISCQASESLVHSNRNTYLHWYLQKPGQSPQLLIYKVSNRFSGVPDRFSGSGSGTDFTLKISRVEAEDVGVYYCSQNTHVPPTFGQGTKVEIE
-1 % of GpH7-B3/GpL16-k0	23 % of GpH7-B3/GpL16-k0	-1 % of GpH7-B3/GpL16-k0	-2 % of GpH7-B3/GpL16-k0	GpH7-B3 P329D/GpL16-k0 (antibody, human IgG1, B3 variant; copies: 2 + 2) heavy: not shown light: DIVMTQSPLSLPVTPGEPASISCQASESLVHSNRNTYLHWYLQKPGQSPQLLIYKVSNRFSGVPDRFSGSGSGTDFTLKISRVEAEDVGVYYCSQNTHVPPTFGQGTKVEIE
21 % of GpH7-B3/GpL16-k0	89 % of GpH7-B3/GpL16-k0	22 % of GpH7-B3/GpL16-k0	13 % of GpH7-B3/GpL16-k0	GpH7-B3 P329I/GpL16-k0 (antibody, human IgG1, B3 variant; copies: 2 + 2) heavy: not shown light: DIVMTQSPLSLPVTPGEPASISCQASESLVHSNRNTYLHWYLQKPGQSPQLLIYKVSNRFSGVPDRFSGSGSGTDFTLKISRVEAEDVGVYYCSQNTHVPPTFGQGTKVEIE
28 % of GpH7-B3/GpL16-k0	95 % of GpH7-B3/GpL16-k0	24 % of GpH7-B3/GpL16-k0	13 % of GpH7-B3/GpL16-k0	GpH7-B3 P329V/GpL16-k0 (antibody, human IgG1, B3 variant; copies: 2 + 2) heavy: not shown light: DIVMTQSPLSLPVTPGEPASISCQASESLVHSNRNTYLHWYLQKPGQSPQLLIYKVSNRFSGVPDRFSGSGSGTDFTLKISRVEAEDVGVYYCSQNTHVPPTFGQGTKVEIE
0 % of GpH7-B3/GpL16-k0	76 % of GpH7-B3/GpL16-k0	-1 % of GpH7-B3/GpL16-k0	-3 % of GpH7-B3/GpL16-k0	GpH7-B3 P329Y/GpL16-k0 (antibody, human IgG1, B3 variant; copies: 2 + 2) heavy: not shown light: DIVMTQSPLSLPVTPGEPASISCQASESLVHSNRNTYLHWYLQKPGQSPQLLIYKVSNRFSGVPDRFSGSGSGTDFTLKISRVEAEDVGVYYCSQNTHVPPTFGQGTKVEIE
